Source: the supplement of paper PMC9170038

System: MS2 coat protein
Test: apparent KD of MS2 coat protein; designed switch direction (-1 OFF switch, 1 ON switch): -1; higher = weaker reporter binding
In short: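 Apparent KD, taken as the median over clusters for each design, was obtained by curve-fitting normalised cluster fluorescence. Designed RNA switches had been transcribed on Illumina chips by stalled E. coli RNA polymerase and titrated with SNAP-549-labelled MS2 coat protein, doubling from 0.7 or 1.5 nM to 3 µM.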

[1] = input ligand: microRNA oligo, concentration not stated
[2] = Eterna round: R95, input ligand: microRNA oligo, concentration not stated
[3] = Eterna round: R95, input ligand: FMN 200 uM
[4] = Eterna round: R95, input ligand: none

GGAUCGAGUGUGAGGAUAUGCUGGUCCUUGGAUCAGCAGAAGGCACAUGAGGAUCACCCAUGUGAAGACGAUCC [Mat - Exclusion 4 - JL Mod - D73] (Eterna round: R96, puzzle: Brourd's mod of Exclusion 4)
apparent KD of MS2 coat protein (input ligand: FMN 200 uM): 230 nM
apparent KD of MS2 coat protein [1]: 23.1 nM
apparent KD of MS2 coat protein (input ligand: none): 28.7 nM

GGAUCGAGUGUGAGGAUAUGCUGGUCCUUGGAUCAGCAGAAGGCACAUGAGGAUCACCCAUGUGAAGACGAUCC [Mat - Exclusion 4 - JL Mod - D73] (puzzle: Brourd's mod of Exclusion 4)
apparent KD of MS2 coat protein [2]: 21.2 nM

GGAUCGUAUGUCAGGAUAUGCCACUGGAUACAGUGGUAGAAGGGACAUGAGGAUCACCCAUGUCCUACCGAUCC [Fiskers BMX 4 - 50] (puzzle: Brourd's mod of Exclusion 4)
apparent KD of MS2 coat protein [2]: 12.4 nM

GGAUUACAUGAGGAUCACCCAUGUCAGGAUAUGAAAGCAUAUGCCGAAAGGCAUAUGCGCAGAAGGGACAAUAU [AK-MS2ROC-r4-exclusion1-3.0] (Eterna round: R97, puzzle: Exclusion 1)
apparent KD of MS2 coat protein (input ligand: FMN 200 uM): 45.7 nM
apparent KD of MS2 coat protein (input ligand: none): 27.5 nM

GGAUUUCCUGAGGAUAUUGCAUCACCCGAUUUAUAAGAAGGCAGAACAUGAGGAUCACCCAUGUGGGUCUCCAG [Bingo-Bango-24] (Eterna round: R97, puzzle: Exclusion 6)
apparent KD of MS2 coat protein (input ligand: FMN 200 uM): 22.9 nM
apparent KD of MS2 coat protein (input ligand: none): 17.9 nM

GGCAAUAACGAGGAUAUCGUAUCGGAAACGAUACGAGAAGGUGUAACAUGAGGAUCACCCAUGUUCCUCAAGCC [Fiskers Ex 6 - 8] (puzzle: Exclusion 6)
apparent KD of MS2 coat protein [2]: 33.9 nM

GGCACACAUGAGGAUCACCCAUGUGAGGAUAUGAGGCGAUCGUCGAUAGACGAUAGCCUUAGAAGGCACAUGCC [Mat - Exclusion 1 - Eli Mod - D11] (Eterna round: R97, puzzle: Exclusion 1)
apparent KD of MS2 coat protein (input ligand: FMN 200 uM): 45.2 nM
apparent KD of MS2 coat protein (input ligand: none): 21.2 nM

GGCACCGUAGGAUAUUGUGGUGCAGACAUGAGGAUCACCCAUGUUGAUCCGGGACUGCAGCGAGAAGGACGGGAAA [Eternabot (Original) Solution 2] (Eterna round: R97, puzzle: Exclusion 5)
apparent KD of MS2 coat protein (input ligand: FMN 200 uM): 284 nM
apparent KD of MS2 coat protein (input ligand: none): 344 nM

GGCAGACAUGAGGAUCACCCAUGUCAGGAUAUGGUGCGAUCGUCGAAAGACGAUAGCACCAGAAGGGACAUGCC [Eli x1 4.03] (Eterna round: R97, puzzle: Exclusion 1)
apparent KD of MS2 coat protein (input ligand: FMN 200 uM): 30.5 nM
apparent KD of MS2 coat protein (input ligand: none): 19.1 nM

GGCAGACAUGAGGAUCACCCAUGUCAGGAUAUGUGGCGAUCGUCGAAAGACGAUAGCCACAGAAGGGACAUGCC [Eli x1 4.20] (Eterna round: R97, puzzle: Exclusion 1)
apparent KD of MS2 coat protein (input ligand: FMN 200 uM): 40.7 nM
apparent KD of MS2 coat protein (input ligand: none): 22.4 nM

GGCAGGCUAGAGGAUAUGCAUUGGCUUGGCCAAGCAGAAGGCUAGACAUGAGGAUCACCCAUGUGUUCCUUGUG [jl-ex6-4.36 ViennaUCT mod] (Eterna round: R97, puzzle: Exclusion 6)
apparent KD of MS2 coat protein (input ligand: FMN 200 uM): 83.5 nM
apparent KD of MS2 coat protein (input ligand: none): 93.6 nM

GGCAGUCGAGGAUAUACGAUCGUGCUUCGGCACGUAAGAUCACAUGAGGAUCACCCAUGUAGAAGGCGACUGCC [Mod 2 - Jieux - Exclusion 2] (Eterna round: R97, puzzle: Exclusion 2)
apparent KD of MS2 coat protein (input ligand: FMN 200 uM): 214 nM
apparent KD of MS2 coat protein (input ligand: none): 33.4 nM

GGCAUGUAAGGAUAUGCCACCGAGUGCUUUGCGCUCGGUAAGCAGAAGGUACAUGAGGAUCACCCAUGUGAUAA [jl-ex4-4.55 ViennaUCT mod] (Eterna round: R97, puzzle: Exclusion 4)
apparent KD of MS2 coat protein (input ligand: FMN 200 uM): 132 nM
apparent KD of MS2 coat protein (input ligand: none): 660 nM

GGCCCACAUGAGGAUCACCCAUGUGAGGAUAUGUUAGUUUCGGCGAAAGCCGAAAUUAACAGAAGGCACAGGCC [JR_Exclusion1_Sub022] (puzzle: Exclusion 1)
apparent KD of MS2 coat protein [2]: 10.8 nM

GGCCGUAAUAAGGAUAUCACUAGCUGCGGCUAGUGAGAAGGUAUUACAUGAGGAUCACCCAUGUGGUCAGGCCA [E6/4-B3] (Eterna round: R97, puzzle: Exclusion 6)
apparent KD of MS2 coat protein (input ligand: FMN 200 uM): 1060 nM
apparent KD of MS2 coat protein (input ligand: none): 284 nM

GGCCUACAUGAGGAUCACCCAUGUAAGGAUAUCAAGUCGGGCUCCAAGGAAGCCCAUAUGAGAAGGUAUUUGGG [Eternabot (L2) Solution 32] (Eterna round: R97, puzzle: Exclusion 1)
apparent KD of MS2 coat protein (input ligand: FMN 200 uM): 116 nM
apparent KD of MS2 coat protein (input ligand: none): 25.3 nM

GGCCUUCCGCAAGCUUUUUACAUGAGGAUCACCCAUGUGAUUUUUAGUCUUAUGCCCGGGCCCGUGUGGGCCCGGGC [-34.8, -55.6, A 14%] (Eterna round: R97, puzzle: Sensor, turn-off variant 1)
apparent KD of MS2 coat protein (input ligand: FMN 200 uM): 23.4 nM
apparent KD of MS2 coat protein (input ligand: none): 23.1 nM

GGCUCGCCUCACAUGAGGAUCACCCAUGUACAAAACAAGAGGCAGGAUAUGGGCCGCGCAGCGGGCCAGAAGGGCCGCAUGGGU [Edsodidige] (Eterna round: R96, puzzle: Exclusion NG 3)
apparent KD of MS2 coat protein (input ligand: FMN 200 uM): 62.9 nM
apparent KD of MS2 coat protein [1]: 67.7 nM
apparent KD of MS2 coat protein (input ligand: none): 113 nM

GGGCCCGGUGUGAGGAUAUUUCGAGUGAAAGCUUGAGAGAAGGCACAUGAGGAUCACCCAUGUAAGCCGGGCCC [-36.4, -34.3 kcal, A 26%, 1bis-0] (Eterna round: R97, puzzle: Brourd's mod of Exclusion 4)
apparent KD of MS2 coat protein (input ligand: FMN 200 uM): 15.1 nM
apparent KD of MS2 coat protein (input ligand: none): 17.8 nM

GGGCUGUCAGGAUAUACAUGAGGAUCACCCAUGUCGAGCUGUGAUAGGGCAAGAGUAGGUAGAAGGGACGAGAG [JR_Exclu3_Sub042] (puzzle: Exclusion 3)
apparent KD of MS2 coat protein [2]: 30.5 nM

GGGUAGUGAGGAUAUCGUUGUUAGGAGGAGUAGGUAGGAGGCGAGAAGGCACAUGAGGAUCACCCAUGUAUGAG [JR_Exclu4_Sub065] (puzzle: Exclusion 4)
apparent KD of MS2 coat protein [2]: 25.5 nM

GGGUGACAUGAGGAUCACCCAUGUCAGGAUAUGAUUCUGCUUGCGAAAGCGAGUAGAAUCAGAAGGGACAACCC (Eterna round: R97, puzzle: Exclusion 1)
apparent KD of MS2 coat protein (input ligand: FMN 200 uM): 359 nM
apparent KD of MS2 coat protein (input ligand: none): 57 nM

GGUACCUCUGUUAGGAUAUUGUUAGUGUGAAGCGACGAGAAGGAACAUGAGGAUCACCCAUGUUGCAUCGUAAA [Eternabot (L2) Solution 54] (Eterna round: R97, puzzle: Brourd's mod of Exclusion 4)
apparent KD of MS2 coat protein (input ligand: FMN 200 uM): 152 nM
apparent KD of MS2 coat protein (input ligand: none): 27.1 nM

GGUACUAACACGAAAGUGUUAGUACUAUAAGUUUGUGUUACAUGAGGAUCACCCAUGUCCUCAUAAGCUCGUCUUGU [JL-sv3-2.20 mat747 mod] (puzzle: Sensor v3, turn-off variant 2)
apparent KD of MS2 coat protein [3]: 623 nM
apparent KD of MS2 coat protein [2]: 59.6 nM
apparent KD of MS2 coat protein [4]: 685 nM

GGUACUAACACGAGAGUGUUAGUACAAUAAGCUUGUGUUACAUGAGGAUCACCCAUGUCCUCAUAAGCUCGUCUUAU [Mat - Sensor v3 - Turn-off var 2 - D57] (puzzle: Sensor v3, turn-off variant 2)
apparent KD of MS2 coat protein [3]: 107 nM
apparent KD of MS2 coat protein [2]: 30.8 nM
apparent KD of MS2 coat protein [4]: 124 nM

GGUAGUUCAGAUCCACAUGAGGAUCACCCAUGUUAAAGGAUCUAGGAUAUCGGGACAUCGAUGCCCGAGAAGGAGACUUUAGCG [Eternabot solution 39] (Eterna round: R96, puzzle: Exclusion NG 3)
apparent KD of MS2 coat protein (input ligand: FMN 200 uM): 173 nM
apparent KD of MS2 coat protein [1]: 100 nM
apparent KD of MS2 coat protein (input ligand: none): 101 nM

GGUCAGAUGGUAGGAUAUCCAUAUUGAGUGACCCUUUCAUAACAUGAGGAUCACCCAUGUCGGUGGGAGAAGGGCCGUACGGCG [salish99_ExNG02_R04_015] (Eterna round: R96, puzzle: Exclusion NG 2)
apparent KD of MS2 coat protein (input ligand: FMN 200 uM): 176 nM
apparent KD of MS2 coat protein [1]: 71.2 nM
apparent KD of MS2 coat protein (input ligand: none): 114 nM

GGUCCACAUGAGGAUCACCCAUGUUAGGAUAUCUCGCCCGAGUCGUUAUGGGCCGGGCAGAGAAGGAAUGUGAA [Redion] (puzzle: Exclusion 1)
apparent KD of MS2 coat protein [2]: 17.9 nM

GGUCCGCAUGUCAGGAUAUACAUAUGGAUCAUAGAGUAGAAGGGACUUGAGGAUCACCCAAGUAACAAAAGAAG [Tiantere] (Eterna round: R97, puzzle: Brourd's mod of Exclusion 4)
apparent KD of MS2 coat protein (input ligand: FMN 200 uM): 60.1 nM
apparent KD of MS2 coat protein (input ligand: none): 21.3 nM

GGUCCGUCAGUGAGGAUAUUGAGGAGGAGGAGGGACAAGAAGGCACAUGAGGAUCACCCAUGUAGGGACGGACG [Alacar 1st] (Eterna round: R97, puzzle: Brourd's mod of Exclusion 4)
apparent KD of MS2 coat protein (input ligand: FMN 200 uM): 46.4 nM
apparent KD of MS2 coat protein (input ligand: none): 21.2 nM

GGUCCUCUGGUGAGGAUAUCUACCCAGGCAGCUGGAGAGAAGGCACAUGAGGAUCACCCAUGUAGCAGAAAACC [Enremadi] (puzzle: Brourd's mod of Exclusion 4)
apparent KD of MS2 coat protein [2]: 9.56 nM

GGUCCUGAUGAUUUCCUAGACAUGAGGAUCACCCAUGUUUAUUUAUUUUGUUUUUAGCUUUUUGGUCGUCAAUAAUA [Mod-Hoo-honey-4] (Eterna round: R97, puzzle: Sensor, turn-off variant 1)
apparent KD of MS2 coat protein (input ligand: FMN 200 uM): 100 nM
apparent KD of MS2 coat protein (input ligand: none): 99.6 nM

GGUCGAAAACAGCUCCGCGCUGCCCUCGACCGCUCAUUUACAUGAGGAUCACCCAUGUUUUUUGCUUGUCUUGUUUC [Esrionus] (puzzle: Sensor v3, turn-off variant 2)
apparent KD of MS2 coat protein [3]: 18.3 nM
apparent KD of MS2 coat protein [2]: 80.1 nM
apparent KD of MS2 coat protein [4]: 22.9 nM

GGUCGACAUGAGGAUCACCCAUGUCAGGAUAUCUACAUUGAAGCUUCGGCUUCAAUGUAGAGAAGGGACAUAAU [E1/14-B1] (Eterna round: R97, puzzle: Exclusion 1)
apparent KD of MS2 coat protein (input ligand: FMN 200 uM): 35.3 nM
apparent KD of MS2 coat protein (input ligand: none): 30.1 nM

GGUCGAGAACAGCUCCGCGCCGCCCUCGACCGCUCAUUUACAUGAGGAUCACCCAUGUUUUUUGCUUGUCUUGUUUC [Ceerar] (puzzle: Sensor v3, turn-off variant 2)
apparent KD of MS2 coat protein [3]: 20.6 nM
apparent KD of MS2 coat protein [2]: 98.4 nM
apparent KD of MS2 coat protein [4]: 23.4 nM
